Results: the supplement of paper PMC10724198
± gives the standard deviation of the averaged measurements.

test system: Saccharomyces cerevisiae; experiment: protein stability index of tFT-peptide fusion (C-terminal peptide) (PSI (0-1 scale)); higher = more stable (slower turnover); conditions: genetic background: wild type; temperature: 30 C
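Note: PSI is a weighted mean of sequencing reads over stability bins, variants kept only with over 10 reads, mCherry proximal and sfGFP distal, peptide attached via GGGS linker.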

Sequence	protein stability index
VGMAGWSRVRWG	0.715 ± 0.0089
VGMVTADGRLAT	0.692 ± 0.043
VGNNERDLQQIE	0.665 ± 0.032
VGRSAAGRLELI	0.679 ± 0.014
VGSGFGGAGVIG	0.696 ± 0.045
VGSRWNKELSQS	0.725 ± 0.081
VGSSPYTVFVSG	0.747 ± 0.11
VGTRVGCEAGVV	0.637 ± 0.095
VGVATRGVGGGM	0.669 ± 0.032
VGVGRAALRWYG	0.6716 ± 0.0035
VGVGRGALRWYG	0.704 ± 0.014
VGVKLVVEAIRR	0.6322 ± 0.0039
VGVLRTSRASPH	0.646 ± 0.031
VGVLSYYTCYEL	0.689 ± 0.18
VGVSGCVLWYRV	0.692 ± 0.031
VGWGLGGGVVLV	0.675 ± 0.047
VGWRGTGCGRVW	0.688 ± 0.074
VGWRWGRGRAVW	0.728 ± 0.067
VGWWVAVGWGLG	0.704 ± 0.067
VGYGTGGAGGVE	0.766 ± 0.044
VHFFHLCFCEIL	0.673 ± 0.051
VHLAPPLPPTAT	0.708 ± 0.021
VHVMSPPPALPV	0.659 ± 0.013

Sequence	protein stability index
VHWAALRSVLRG	0.699 ± 0.047
VIAGSWVAGVSV	0.655 ± 0.011
VICSIRGYNRLR	0.711 ± 0.038
VIDQRIDIAYFS	0.746 ± 0.1
VIEWFVRGRGGG	0.693 ± 0.01
VIGSSGRVGGLG	0.6913 ± 0.0028
VILGRGGSICKV	0.795 ± 0.046
VIYERDSLRGGI	0.753 ± 0.038
VKGKKREVTDPR	0.6376 ± 0.0023
VKRSGSDGALHR	0.685 ± 0.021
VKRVYQRFHVKK	0.666 ± 0.04
VKSAAGPGRRSS	0.66 ± 0.015
VKSTRRHGRPQS	0.723 ± 0.057
VKTLNQKCIKKN	0.719 ± 0.062
VKYSIEVKRKKK	0.7181 ± 0.0039
VLAHCLFRCEKN	0.6062 ± 0.001
VLAWVPNFALLP	0.677 ± 0.063
VLDLVPDFSNGG	0.65 ± 0.036
VLDVRLGGRCGE	0.702 ± 0.072
VLEKFFFGLAIL	0.569 ± 0.014
VLFLGVRCSCLG	0.533 ± 0.014
VLFLVGLCRDFA	0.553 ± 0.036
VLFSRFVFLGVL	0.528 ± 0.0095

Sequence	protein stability index
VLHQWWCIGLGC	0.736 ± 0.013
VLKVFIRERRVR	0.703 ± 0.081
VLLYSGVVKFLQ	0.586 ± 0.021
VLMSCLFFGIRY	0.54 ± 0.044
VLPAWSGTHFVG	0.714 ± 0.017
VLPKQVSEALTL	0.612 ± 0.024
VLPPLSALAPFD	0.764 ± 0.029
VLQSTTNPPTSW	0.631 ± 0.05
VLRFHIRRTQQQ	0.707 ± 0.012
VLRSPHYRPRRE	0.673 ± 0.055
VLSDFSFPFFVL	0.669 ± 0.017
VLSVLGLGFWGG	0.8042 ± 0.0076
VLTGQQSVFGAK	0.752 ± 0.096
VLVSGRCCRCGF	0.701 ± 0.048
VMLGGWRVPGER	0.7754 ± 0.0033
VMNGGCFGWAVG	0.628 ± 0.058
VMPSICTKYGVN	0.717 ± 0.13
VMVNTAWERRKR	0.673 ± 0.065
VMYLSGCFHSQI	0.659 ± 0.059
VNILKRQKRARG	0.72 ± 0.052
VNQSCPRPTPFV	0.67 ± 0.051
VNTPGVDSDPVA	0.661 ± 0.11
VPACFSYFLASC	0.68 ± 0.04

Sequence	protein stability index
VPCILLFSHFKH	0.619 ± 0.042
VPCPPRRLAPRG	0.582 ± 0.015
VPDGPAHIPLPL	0.683 ± 0.065
VPDGVAGRRPDR	0.679 ± 0.056
VPLIFSTFVSIS	0.54 ± 0.009
VPLSPPRTPTLY	0.648 ± 0.12
VPPALPRSPGPP	0.72 ± 0.069
VPPGVVSSPCPN	0.661 ± 0.056
VPPHPFFPLPPP	0.788 ± 0.099
VPPKHLYPLPPP	0.612 ± 0.007
VPPPALPPCPAF	0.723 ± 0.037
VPPPRLCPERPH	0.719 ± 0.063
VPPRPAPRLRPP	0.695 ± 0.07
VPRAPSPCPVSL	0.71 ± 0.046
VPRSSGAILGFL	0.637 ± 0.015
VPSGTHHPFTLS	0.751 ± 0.02
VPSLRSTLPPPL	0.731 ± 0.051
VPTCFPLSPSPP	0.714 ± 0.016
VPTLCDQVFLFA	0.627 ± 0.0086
VPVGSWVGIGGK	0.692 ± 0.043
VPVSNLCERTAG	0.648 ± 0.011
VQCRIREELWGG	0.6919 ± 0.0047
VQGGRNGEGGRG	0.651 ± 0.081

Sequence	protein stability index
VQIALTLNSPSL	0.605 ± 0.058
VQLSISCEPPSN	0.7391 ± 0.007
VQMKVKKRLNEW	0.6744 ± 0.0046
VQYITSGASRWG	0.6309 ± 0.00084
VRAVGSIILPPG	0.6558 ± 0.00093
VRCAAIKLIGRI	0.675 ± 0.051
VRCKGLGLAVCA	0.541 ± 0.062
VRCWGRGSGVGD	0.666 ± 0.036
VREILKDGIFDP	0.717 ± 0.043
VRERGAGAVAGS	0.715 ± 0.044
VRERVRRWVGDG	0.5752 ± 0.0053
VRGGGRARRRGS	0.7347 ± 0.0044
VRGKSARRSSRR	0.665 ± 0.029
VRISGLSALPHF	0.70793 ± 9.5e-05
VRLMARFESFLW	0.69 ± 0.023
VRPLPAPVQPHP	0.741 ± 0.019
VRPYPGDDVSWR	0.693 ± 0.061
VRRGVGAVVFGG	0.655 ± 0.08
VRRRLRLFLMWG	0.588 ± 0.0052
VRRVHAMVLLGG	0.65 ± 0.014
VRTLVGQVWETV	0.721 ± 0.031
VRVALISDRGKQ	0.738 ± 0.025
VSADGAGCAVRG	0.709 ± 0.052

Sequence	protein stability index
VSAYLKNSGYRE	0.6955 ± 0.0061
VSAYWFLLFGSV	0.662 ± 0.13
VSCHSPPVPHDP	0.702 ± 0.011
VSCVRGFFLFPC	0.699 ± 0.022
VSEEFAGSGTKS	0.67 ± 0.064
VSFPHSRLSLTI	0.747 ± 0.02
VSFSSLLRFCRG	0.671 ± 0.0091
VSGDLRRWRNSE	0.673 ± 0.043
VSGEGRGRTTPD	0.665 ± 0.013
VSGFVAALRIFL	0.657 ± 0.025
VSGGGEWRDAYG	0.677 ± 0.04
VSGMRRRFGNRL	0.756 ± 0.11
VSHVRVNESAAN	0.677 ± 0.0078
VSKVGDMNSGSK	0.651 ± 0.013
VSLGALFEFRAA	0.745 ± 0.015
VSLSSLPRRFSP	0.75 ± 0.04
VSNIVGRSLSCR	0.688 ± 0.014
VSNVSDSGHPYL	0.6777 ± 0.0021
VSRHRRLAGMIW	0.735 ± 0.018
VSRPPPRNPTPP	0.728 ± 0.078
VSSVSLRVRVLF	0.564 ± 0.08
VSVFRFALGLQV	0.563 ± 0.0058
VSVGVPGWYGMI	0.6336 ± 0.0049

Sequence	protein stability index
VSVWLGSARWVG	0.628 ± 0.0086
VSWRGSFQGIYG	0.685 ± 0.043
VSYLAQSFLPNL	0.69928 ± 9.6e-05
VSYRLDMHFLYY	0.6062 ± 0.0046
VTISLGGGGGMQ	0.684 ± 0.12
VTISLGVGGGMQ	0.725 ± 0.048
VTRGGKLRRGRV	0.638 ± 0.089
VTRRIPPRGGPR	0.72 ± 0.074
VVCFGNFGGVRV	0.778 ± 0.049
VVGAALRDGPRE	0.71 ± 0.012
VVGAIRWGGGRR	0.705 ± 0.014
VVGAVSASLAGV	0.662 ± 0.056
VVGGGDWRWGVW	0.7709 ± 0.0046
VVGNGGWVEGEV	0.621 ± 0.13
VVGSAGGGGFVL	0.6717 ± 0.0065
VVGSVPVSAFWE	0.746 ± 0.075
VVGSWGRGGCGG	0.639 ± 0.0017
VVGVCLDIVCSP	0.519 ± 0.013
VVGWSSGVVEVA	0.688 ± 0.035
VVHECIGVYGTV	0.634 ± 0.017
VVLFCPFISSED	0.726 ± 0.012
VVLGQGRGVGAM	0.669 ± 0.012
